Data: paper PMC8835725, “Cryo‐EM structure of the full‐length Lon protease from Thermus thermophilus” (Febs Letters, 2021)
Where “and” joins values, the source holds several entries; their conditions need not be identical. Identical values can stand only once.

B1: Lon protease from Escherichia coli, full length (enzyme, UniProt P0A9M0 1-784, looked up)
chain: MNPERSERIEIPVLPLRDVVVYPHMVIPLFVGREKSIRCLEAAMDHDKKIMLVAQKEASTDEPGVNDLFTVGTVASILQMLKLPDGTVKVLVEGLQRARISALSDNGEHFSAKAEYLESPTIDEREQEVLVRTAISQFEGYIKLNKKIPPEVLTSLNSIDDPARLADTIAAHMPLKLADKQSVLEMSDVNERLEYLMAMMESEIDLLQVEKRIRNRVKKQMEKSQREYYLNEQMKAIQKELGEMDDAPDENEALKRKIDAAKMPKEAKEKAEAELQKLKMMSPMSAEATVVRGYIDWMVQVPWNARSKVKKDLRQAQEILDTDHYGLERVKDRILEYLAVQSRVNKIKGPILCLVGPPGVGKTSLGQSIAKATGRKYVRMALGGVRDEAEIRGHRRTYIGSMPGKLIQKMAKVGVKNPLFLLDEIDKMSSDMRGDPASALLEVLDPEQNVAFSDHYLEVDYDLSDVMFVATSNSMNIPAPLLDRMEVIRLSGYTEDEKLNIAKRHLLPKQIERNALKKGELTVDDSAIIGIIRYYTREAGVRGLEREISKLCRKAVKQLLLDKSLKHIEINGDNLHDYLGVQRFDYGRADNENRVGQVTGLAWTEVGGDLLTIETACVPGKGKLTYTGSLGEVMQESIQAALTVVRARAEKLGINPDFYEKRDIHVHVPEGATPKDGPSAGIAMCTALVSCLTGNPVRADVAMTGEITLRGQVLPIGGLKEKLLAAHRGGIKTVLIPFENKRDLEEIPDNVIADLDIHPVKRIEEVLTLALQNEPSGMQVVTAK
notes: Lon protease, Escherichia coli, UniProt P0A9M0, full length, untagged after SUMO cleavage; Seen as a mixture of hexamers and dodecamers on EM grids; also called EcLon; EcLon^FL; source: E. coli C41(DE3), purified (Ni-NTA, SUMO tag cleaved with SENP protease, Superose 6 Increase SEC); not shown: His6, N-terminal, cleaved; SUMO, N-terminal, cleaved
B2: N-terminally truncated mutant EcLon^253-784 (domain or fragment, Escherichia coli, UniProt P0A9M0 253-784, looked up)
chain: ALKRKIDAAKMPKEAKEKAEAELQKLKMMSPMSAEATVVRGYIDWMVQVPWNARSKVKKDLRQAQEILDTDHYGLERVKDRILEYLAVQSRVNKIKGPILCLVGPPGVGKTSLGQSIAKATGRKYVRMALGGVRDEAEIRGHRRTYIGSMPGKLIQKMAKVGVKNPLFLLDEIDKMSSDMRGDPASALLEVLDPEQNVAFSDHYLEVDYDLSDVMFVATSNSMNIPAPLLDRMEVIRLSGYTEDEKLNIAKRHLLPKQIERNALKKGELTVDDSAIIGIIRYYTREAGVRGLEREISKLCRKAVKQLLLDKSLKHIEINGDNLHDYLGVQRFDYGRADNENRVGQVTGLAWTEVGGDLLTIETACVPGKGKLTYTGSLGEVMQESIQAALTVVRARAEKLGINPDFYEKRDIHVHVPEGATPKDGPSAGIAMCTALVSCLTGNPVRADVAMTGEITLRGQVLPIGGLKEKLLAAHRGGIKTVLIPFENKRDLEEIPDNVIADLDIHPVKRIEEVLTLALQNEPSGMQVVTAK
notes: Lon protease, Escherichia coli, UniProt P0A9M0, residues 253-784 (lacks the NTD and the collar); Tags and their cleavage follow from 'produced as described for full-length EcLon'; also called EcLon truncation including residues 253 to 784; source: E. coli C41(DE3), purified, produced as described for full-length EcLon; not shown: His6, N-terminal, cleaved; SUMO, N-terminal, cleaved
B3: Lon protease from Thermus thermophilus (enzyme, UniProt Q72KS4 1-795, looked up)
chain: MKDFLRLELPVLPLRNTVVLPHTTTGVDVGRLKSKRAVEEALSADRLLFLVTQKDPEVDDPAPEDLYAVGTLAVVKQAMRLPDGTLQVMVEARSRARLLSYVAAPYLRAVGEAIPEPPLKDPELARVLVNEVQEAFERYLQNHKTLRLDRYQQEAVKSTRDPAILADLVAHHATWTLEEKQTILETPEVEERLKRVLALLLRDLERFELDKKIAARVKEQMDQNQREYYLREQMKAIQKELGGGEDFLTEIEELRERIEKKGMPEPVKEKALKELKRLERMQPGSPEATVSRTYLDWLLEVPWTEADPEVLDISVTKRVLDEDHYGLKEVKERILEYLAVRQLTQGKEVKGHAPILCFVGPPGVGKTSLGKSIARSMNRRFHRISLGGVRDEAEIRGHRRTYIGALPGKIIQGMKQVGVVNPVFLLDEIDKLSSDWRGDPAAALLEVLDPEQNHTFTDHYLDVPYDLSKVFFITTANTLSTIPRPLLDRMEVIEIPGYTLHEKRAIARYFRWPFQVKEAGLEGRLEITDRAIERIVQEYTREAGVRNLDRELSKVARKAAKDYLEKPWEGVRVVDAEDLEAYLGVPKYRPDRAEKEPQVGAAQGLAWTPYGGTLLTIEAVAVPGTGKVNLTGNLGEVMKESAHAALTYLRAHREEWGLPEGFHKDYDLHIHVPEGATPKDGPSAGITIATALASALTGRPVRMDIAMTGEITLRGRVLPIGGVKEKLLAAHQAGIHRVILPKENAAELKEVPEEILKDLEIHFVEEVGEVLKLLLLPPPPPPAVQPDRPQPGVGA
notes: Lon protease, Thermus thermophilus, UniProt Q72KS4, full length, untagged and unmodified after SUMO cleavage; Homo-hexamer; cryo-EM sample in buffer A with 1 mM AMP-PNP and 5 mM MgCl2; also called TtLon; Lon from T. thermophilus; source: E. coli C41(DE3), purified (Ni-NTA, SUMO tag cleaved with SENP protease, Superose 6 Increase SEC); not shown: His6, N-terminal, cleaved; SUMO, N-terminal, cleaved

Experiments:
[1] = molecular target: the molecule itself; assay: electron microscopy on grids; purified EcLon on EM grids
[2] = molecular target: the molecule itself; assay: SEC + other: negative staining electron microscopy; Superose 6 Increase 10/300 GL in buffer A (50 mM Tris/HCl, 200 mM NaCl, pH 8.0); oligomer size by column calibration, verified by negative staining EM

Row | Protein | stoichiometry N [1] | stoichiometry N [2]
1 | B1 | 6 and 12 | 
2 | B2 |  | 6
3 | B3 |  | 6
